The target in assay [1] is T1, human GFRα3 expressed with a C-terminal myc-myc-hexahistidine tag (human, UniProt O60609 32-374, biotinylated (sites not given) in ELISA format 2 and in the Octet cross-competition; not in SPR).
T1 construct: also called hGFRα3-mmh; hGFRα3-mmH
The assay is described as follows: SPR, Ab captured, 25C. In short, it runs like this:
(§1)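 KD values come from 1:1 kinetic fits of surface plasmon resonance data, with KD (M) = kd/kₐ and t½ (min) = ln 2/(60*kd). The antibody was held on an amine-coupled anti-IgG capture surface and antigen flowed over in HBS-EP, pH 7.4, or PBS with 0.05% P20.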

For assay [2], the target named is T2, human GFRα3 expressed with a C-terminal mFc tag (human).
T2 construct: also called hGFRα3-mFc
T2 chain: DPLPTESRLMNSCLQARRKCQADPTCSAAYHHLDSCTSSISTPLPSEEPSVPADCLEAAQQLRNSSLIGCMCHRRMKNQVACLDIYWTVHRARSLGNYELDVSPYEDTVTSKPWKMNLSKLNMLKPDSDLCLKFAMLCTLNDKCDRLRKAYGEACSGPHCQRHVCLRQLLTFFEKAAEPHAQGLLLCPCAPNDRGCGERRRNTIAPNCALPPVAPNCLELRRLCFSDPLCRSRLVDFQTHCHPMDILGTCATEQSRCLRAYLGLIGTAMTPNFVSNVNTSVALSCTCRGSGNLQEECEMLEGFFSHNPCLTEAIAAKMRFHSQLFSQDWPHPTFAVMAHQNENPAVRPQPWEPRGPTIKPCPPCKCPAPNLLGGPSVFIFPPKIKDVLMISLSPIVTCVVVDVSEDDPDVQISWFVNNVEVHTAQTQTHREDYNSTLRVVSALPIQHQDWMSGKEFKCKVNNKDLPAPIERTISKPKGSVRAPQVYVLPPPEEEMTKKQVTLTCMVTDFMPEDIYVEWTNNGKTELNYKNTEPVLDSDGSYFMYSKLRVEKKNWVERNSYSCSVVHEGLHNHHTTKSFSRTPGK
The assay is described as follows: SPR, Ab captured, 25C. The procedure, abridged: as §1
A general note: In SPR one partner is held on a chip, and binding of the other changes the refractive index at the surface.

The target in assay [3] is T1, human GFRα3 expressed with a C-terminal …. The assay can be described thus: Octet cross-competition; biotin-hGFRα3-mmH pre-saturated with first antibody H4H2342P. In short, it runs like this: (§2)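 Run at 25 °C, 1000 rpm, in HBST (0.01 M HEPES pH7.4, 0.15M NaCl, 3 mM EDTA, 0.05% P20, 0.1 mg/mL BSA). About 1.2 nm antigen was loaded from 10 μg/mL over 1 minute, the first antibody was applied for 4 minutes, and then a second antibody was dipped. End-of-step binding responses indicated competition.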
Background: In BLI a coated tip is dipped into the sample, and binding shifts an interference pattern.

For assay [4] the target is unchanged. The assay can be described thus: Octet cross-competition; biotin-hGFRα3-mmH pre-saturated with first antibody H4H2294S. The procedure, abridged: as §2
Assay [5] has the same target. The assay can be described thus: Octet cross-competition; biotin-hGFRα3-mmH pre-saturated with first antibody H4H2355S. In short, it runs like this: as §2
For assay [6] the target is unchanged. The assay can be described thus: Octet cross-competition; biotin-hGFRα3-mmH pre-saturated with first antibody H4H2357S. In short, it runs like this:
as §2

Assay [7] shares this target. The assay is described as follows: Octet cross-competition; biotin-hGFRα3-mmH pre-saturated with first antibody H4H2236N3. The procedure, abridged:
as §2

T1 sequence (O60609 other isoform, or with tags, fused parts or gaps limits assumed): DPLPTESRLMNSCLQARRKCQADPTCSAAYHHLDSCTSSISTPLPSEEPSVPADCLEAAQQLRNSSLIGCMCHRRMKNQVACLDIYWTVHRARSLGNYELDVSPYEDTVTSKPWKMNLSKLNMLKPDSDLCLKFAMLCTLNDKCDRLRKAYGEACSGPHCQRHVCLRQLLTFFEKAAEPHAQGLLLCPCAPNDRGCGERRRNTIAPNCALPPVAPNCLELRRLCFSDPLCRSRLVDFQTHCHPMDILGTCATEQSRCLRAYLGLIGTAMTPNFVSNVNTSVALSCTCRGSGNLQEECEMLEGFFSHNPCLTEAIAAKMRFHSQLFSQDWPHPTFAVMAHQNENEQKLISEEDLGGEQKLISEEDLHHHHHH

B1: H4H2350P (antibody, human IgG4, V domains shown)
VH: QVQLQESGPGLVKPSETLSLTCTVSGGSISTYYWSWFRQPPGKGLEWIGYIYYSGSTNHNPSLKSRVTISVDTSKNQFSLKLRSVTAADTAVYYCARVGPVGWGSWGNFDYWGQGTLVTVSS
VL: DIQLTQSPSFLSASVGDRVTITCWASQGISSYLAWSQQKPGKAPKLLIYAASTLQSGVPSRFSGSGSGTEFTLTISSLQPEDFATYYCQQLNSYPWTFGQGTKVEIK
notes: human IgG4 Fc (H4H)
As to B1, the Kd in assay [1] amounted to 2.01 nM; in assay [2] it was 0.0416 nM. The koff was 0.000207 s⁻¹ in assay [1] and 2.12e-05 s⁻¹ in assay [2]. The kon was found to be 103000 M⁻¹ s⁻¹ in assay [1] and 509000 M⁻¹ s⁻¹ in assay [2]. The values for the t1/2 in assay [1] and in assay [2] were 0.933 h and 9.08 h, respectively. Moreover, the “binding response of second antibody (nm)” value in assay [3] was found to be 1.46 nm; in assay [4], 1.42 nm; in assay [5], 1.44 nm; in assay [6], 1.35 nm; in assay [7], 1.35 nm.

By Kd is commonly meant the equilibrium constant for the complex coming apart. Higher therefore signals a looser complex. The term koff denotes the first-order rate constant of dissociation. The term kon denotes the rate constant with which the complex forms. Lower therefore signals slow association.

The values are drawn from patent publication US20140056903A1 (Regeneron, published 2014).
